Assay results reported in patent US20140154255A1 (AbbVie / Abbott, published 2014).
Positions count from the first letter of the chain named. Names and notes keep the numbering of the source.

B1: 91 (antibody, human IgG1, V domains shown)
VH: EVQLVESGGGLVQPGGSLRLSCAASGYTFTFYGMNWVRQAPGKGLEWVGWINTYTGEPTYAADFKRRFTFSLDTSKSTAYLQMNSLRAEDTAVYYCAKYPHYYGSSHWYFDVWGQGTLVTVSS
VL: DIQMTQSPSSLSASVGDRVTITCSASQDISNYLNWYQQKPGKAPKVLIYFTSSLHSGVPSRFSGSGSGTDFTLTISSLQPEDFATYYCQQYSTVPWTFGQGTKVEIKR
B2: 92 (antibody, human IgG1, V domains shown)
VH: B1 VH with F31N, H101P
VL: B1 VL
B3: 95 (antibody, human IgG1, V domains shown)
VH: B1 VH with F31N, H101D
VL: B1 VL
B4: 93 (antibody, human IgG1, V domains shown)
VH: B1 VH with F31N, H101E
VL: B1 VL
B5: H97 A (SS DLL4-VEGF DVD-Ig) (bispecific antibody)
VH: EVQLVESGGGLVQPGGSLRLSCAASGFTFSNFPMAWVRQAPGKGLEWVATISSSDGTTYYRDSVKGRFTISRDNAKNSLYLQMNSLRAEDTAVYYCARGYYNSPFAYWGQGTLVTVSSASTKGPEVQLVESGGGLVQPGGSLRLSCAASGYTFTNYGMNWVRQAPGKGLEWVGWINTYTGEPTYAADFKRRFTFSLDTSKSTAYLQMNSLRAEDTAVYYCAKYPAYYGSSHWYFDVWGQGTLVTVSS
VL: DIQMTQSPSSLSASVGDRVTITCRASEDIYSNLAWYQQKPGKAPKLLIYDTNNLADGVPSRFSGSGSGTDFTLTISSLQPEDFATYYCQQYNNYPPTFGQGTKLEIKRTVAAPDIQMTQSPSSLSASVGDRVTITCSASQDISNYLNWYQQKPGKAPKVLIYFTSSLHSGVPSRFSGSGSGTDFTLTISSLQPEDFATYYCQQYSTVPWTFGQGTKVEIK
notes: also called SS DLL4-VEGF DVD-Ig variant H97A
B6: N31 W (SS DLL4-VEGF DVD-Ig) (bispecific antibody)
VH: B5 VH with N155W, A225H
VL: B5 VL
notes: also called SS DLL4-VEGF DVD-Ig variant N31W
B7: H97 F (SS DLL4-VEGF DVD-Ig) (bispecific antibody)
VH: B5 VH with A225F
VL: B5 VL
notes: also called SS DLL4-VEGF DVD-Ig variant H97F
B8: S100a A (SS DLL4-VEGF DVD-Ig) (bispecific antibody)
VH: B5 VH with A225H, S229A
VL: B5 VL
notes: also called SS DLL4-VEGF DVD-Ig variant S100aA
B9: S100a T (SS DLL4-VEGF DVD-Ig) (bispecific antibody)
VH: B5 VH with A225H, S229T
VL: B5 VL
notes: also called SS DLL4-VEGF DVD-Ig variant S100aT
B10: E 56 Q (bispecific antibody)
VH: B5 VH with E181Q, A225H
VL: B5 VL
notes: also called SS DLL4-VEGF DVD-Ig variant E56Q
B11: E 56 R (bispecific antibody)
VH: B5 VH with E181R, A225H
VL: B5 VL
notes: also called SS DLL4-VEGF DVD-Ig variant E56R
B12: N 31 G (bispecific antibody)
VH: B5 VH with N155G, A225H
VL: B5 VL
notes: also called SS DLL4-VEGF DVD-Ig variant N31G
B13: T 30 F (bispecific antibody)
VH: B5 VH with T154F, A225H
VL: B5 VL
notes: also called SS DLL4-VEGF DVD-Ig variant T30F
B14: G 55 Q (bispecific antibody)
VH: B5 VH with G180Q, A225H
VL: B5 VL
notes: also called SS DLL4-VEGF DVD-Ig variant G55Q
B15: T 28 D (bispecific antibody)
VH: B5 VH with T152D, A225H
VL: B5 VL
notes: also called SS DLL4-VEGF DVD-Ig variant T28D
B16: E 56 W (bispecific antibody)
VH: B5 VH with E181W, A225H
VL: B5 VL
notes: also called SS DLL4-VEGF DVD-Ig variant E56W
B17: E 56 T (bispecific antibody)
VH: B5 VH with E181T, A225H
VL: B5 VL
notes: also called SS DLL4-VEGF DVD-Ig variant E56T
B18: T 28 W (bispecific antibody)
VH: B5 VH with T152W, A225H
VL: B5 VL
notes: also called SS DLL4-VEGF DVD-Ig variant T28W

Target: T1, VEGF (R&D systems, Minneapolis, Minn.) (UniProt P15692-4 27-191, limits assumed)
Test: BIAcore SPR
Method: (§1) RL was kept low to minimize avidity due to the dimeric nature of VEGF. No capture of the antibody was made on the reference surface to serve as a negative control. Subsequently, VEGF was injected to all flow cells at a flow rate of 50 μL/min for two minutes to monitor association followed by a 25-minute flow of HBS-P running buffer (10 mM HEPES, 150 mM sodium chloride, 0.005% P-20, pH 7.4) to monitor the dissociation phase. At each cycle, VEGF, in 6 different concentrations of VEGF ranging between 0 nM and 512 nM and at four-fold increments, was injected over the surface. […] Binding data were fit to the 1:1 Langmuir model to extract binding constants from the BIAevaluate software. Double referencing was applied in each analysis to eliminate background responses from the reference surface and buffer only control. All the binding kinetics data were analyzed at least three separate determinations.

T1 sequence (P15692 other isoform, or with tags, fused parts or gaps limits assumed): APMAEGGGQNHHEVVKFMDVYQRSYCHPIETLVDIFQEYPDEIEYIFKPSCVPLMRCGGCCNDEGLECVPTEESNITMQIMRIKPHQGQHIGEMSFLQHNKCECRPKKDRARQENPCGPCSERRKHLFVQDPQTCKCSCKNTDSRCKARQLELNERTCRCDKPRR

Kd | koff | kon | Binder
0.575 nM | 0.000121 s⁻¹ | 211000 M⁻¹ s⁻¹ | B1
0.708 nM | 0.000256 s⁻¹ | 367000 M⁻¹ s⁻¹ | B2
1.54 nM | 0.000396 s⁻¹ | 262000 M⁻¹ s⁻¹ | B3
0.761 nM | 0.000225 s⁻¹ | 292000 M⁻¹ s⁻¹ | B4

Target: T2, human VEGF-A residues 27-191 of Accession #AAV38412 (human, UniProt P15692 27-191)
T2 construct: range 27-191
Test: BIAcore SPR
Method: (§2) The binding kinetics and affinity of the antibodies for VEGF (human VEGF-A residues 27-191 of Accession #AAV38412) was determined by using a BIAcore T200 surface plasmon resonance system (BIAcore, GE Healthcare, Piscataway, N.J.). Coupling running buffer was HBS-EP+ running buffer (10 mM HEPES, 150 mM sodium chloride, 3 mM EDTA 0.05% P-20, pH 7.4); assay running buffer was HBS-EP+ with 300 mM sodium chloride and 0.1 mg/mL BSA (Sigma A7906). Polyclonal goat anti-human Fc (Thermo Scientific prod#31125) was first immobilized to the biosensor surface in 10 mM sodium acetate, pH 4.5 using standard BIAcore amine coupling reagents (N-ethyl-N′-dimethylamino-propylcarbodiimide, EDC; N-hydroxysuccinimide, NHS; and ethanolamine HCl, pH 8.5). For binding kinetics assay a series of cycles were performed, each cycle consisted of 1) mAb capture, 2) Ag or buffer injection, 3) dissociation phase and 4) regeneration. Briefly, anti-VEGF antibodies were captured on parallel surfaces at a low flow rate of 10 μL/min. Capture levels were kept low to minimize avidity due to the dimeric nature of VEGF. No capture of the antibody was made on the reference surface to serve for primary referencing and as a negative control. Subsequently, VEGF or buffer only was injected to all flow cells at a flow rate of 80 μL/min for three minutes to monitor association followed by a 20-minute flow of assay rinning buffer at a flow rate of 80 μL/min to monitor dissociation. […] At the end of each cycle the surface was regenerated with 10 mM glycine, pH 1.5 at a flow rate of 60 μL/min in pulses of 60 and 10 sec. Binding data were fit to the 1:1 Langmuir model with mass transport term included using Biacore T200 Evaluation Software to determine the binding constants.

T2 sequence (P15692 other isoform, or with tags, fused parts or gaps limits assumed): as above

Kd | koff | kon | Binder
0.091 nM | 2.48e-05 s⁻¹ | 272000 M⁻¹ s⁻¹ | B1
0.522 nM | 0.00021 s⁻¹ | 401000 M⁻¹ s⁻¹ | B2
1.3 nM | 0.000351 s⁻¹ | 270000 M⁻¹ s⁻¹ | B3
1.59 nM | 0.000358 s⁻¹ | 225000 M⁻¹ s⁻¹ | B4

Target: T1, VEGF (R&D systems, Minneapolis, Minn.)
Test: BIAcore SPR, WT/mutant
Method: as §1

Δkoff | Binder
2.9 fold | B1
1.4 fold | B2
0.9 fold | B3
1.6 fold | B4

Target: T1, VEGF (R&D systems, Minneapolis, Minn.)
Test: BIAcore SPR, mutant/WT
Method: as §1

Δkon | Binder
1.2 fold | B1
2 fold | B2
1.5 fold | B3
1.6 fold | B4

Target: T2, human VEGF-A residues 27-191 of …
Test: BIAcore SPR [continued]
Method: as §2

Kd | koff | kon | Binder
5.03 nM | 0.000269 s⁻¹ | 53600 M⁻¹ s⁻¹ | B5
13 nM | 6.92e-05 s⁻¹ | 5500 M⁻¹ s⁻¹ | B6
11 nM | 8.15e-05 s⁻¹ | 7210 M⁻¹ s⁻¹ | B7
11 nM | 0.000124 s⁻¹ | 11700 M⁻¹ s⁻¹ | B8
7.6 nM | 7.33e-05 s⁻¹ | 9630 M⁻¹ s⁻¹ | B9

Target: T2, human VEGF-A residues 27-191 of …
Test: BIAcore SPR, KD WT/KD mutant
Method: as §2

affinity improvement | Binder
4.7 fold | B1
0.8 fold | B2
0.4 fold | B3
0.3 fold | B4

Target: T1, VEGF (R&D systems, Minneapolis, Minn.)
Test: BIAcore SPR, improvement over WT
Method: as §1

ΔKD | Binder
3.4 fold | B1
2.8 fold | B2
1.3 fold | B3
2.6 fold | B4

Target: T3, unlabeled human VEGF (ELISA coat) (human, UniProt P15692-4 27-191, limits assumed)
Test: ELISA 1 hr, EC50 WT/EC50 mutant
Method: (§3) To detect identified variants binding to antigen, ELISA plates (Nunc-Immuno MaxiSorp plates, Nalge Nunc, Rochester, N.Y.) were coated overnight at 4° C. with unlabeled human VEGF at 1 μg/mL in 0.2 M sodium carbonate-bicarbonate buffer (pH 9.4, Pierce, Rockford, Ill.). The plates were then blocked with SuperBlock Blocking Buffer (Pierce, Rockford, Ill.) for 30 min and washed with Washing Buffer (PBS containing 0.1% Tween 20). All the washing steps were performed for three times. […] The plates were washed and 100 μL of goat anti-human kappa HRP-conjugated antibody (Southern Biotech, Birmingham, Ala.) diluted at 1:1000 in ELISA buffer was added to each well. After 30 minutes of incubation, plates were washed and bound antibodies were detected by addition of TMB 1 Component HRP Microwell substrate (BioFx #TMBW-1000-01). The reaction was terminated by addition of 100 μL/well of 650 nM Stop Reagent for TMB Microwell substrate and the absorbance was measured at 650 nm using a VERSAmax microplate reader (Molecular Devices, Sunnyvale, Calif.). Data were fitted using nonlinear regression with the software […]

T3 sequence (P15692 other isoform, or with tags, fused parts or gaps limits assumed): as above

ELISA 1hr binding | Binder
0.7 fold | B1
2.7 fold | B2
4.5 fold | B3
4.3 fold | B4

Target: T3, unlabeled human VEGF (ELISA coat)
Test: ELISA overnight, EC50 WT/EC50 mutant
Method: as §3

ELISA o/n binding | Binder
0.3 fold | B1
1 fold | B2
3 fold | B3
3.6 fold | B4

Target: T2, human VEGF-A residues 27-191 of …
Test: BIAcore SPR, KD WT/KD mutant [continued]
Method: as §2

affinity improvement | Binder
1 fold | B5
0.9 fold | B6
0.8 fold | B7
0.8 fold | B8
1.2 fold | B9

Target: T2, human VEGF-A residues 27-191 of …
Test: SS DLL4-VEGF DVD-Ig format; BIAcore by paragraph 262
Method: as §2

Affinity relative to WT | Binder
0.7 fold | B10
0.9 fold | B11
1.1 fold | B12
0.4 fold | B13
0.9 fold | B14
0.8 fold | B15
0.6 fold | B16
0.8 fold | B17
0.6 fold | B18
